Experimental data reported in US20240409645A1.
Substitutions are numbered along the chain they refer to.

T1: mouse IL-2Rα (mouse) (UniProt P01590)
T1 sequence (looked up): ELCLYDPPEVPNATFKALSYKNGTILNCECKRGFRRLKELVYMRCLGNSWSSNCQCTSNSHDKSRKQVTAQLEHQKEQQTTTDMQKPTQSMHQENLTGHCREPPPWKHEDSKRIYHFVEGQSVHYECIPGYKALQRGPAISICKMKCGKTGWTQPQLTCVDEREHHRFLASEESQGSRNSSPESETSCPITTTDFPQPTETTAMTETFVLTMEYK

B1: FJ1427_P035MP01A11 (VHH)
VHH: QVQLVESGGGLVQPGGSLRLSCAASGRTFETHNMGWFRRAPGKEREFVAVISWNVDSTEYTDSVKGRFTISRDNDKNMVYLQMNSLKPEDTGVYYCAADNIPLSSDMSPTAAEYGYWGQGTQVTVSS
B2: 07-MP01G08 (VHH)
VHH: EVQLVESGGGLVQAGGSLRLSCAASGRAFSMYNMGWFRQAPGKEREFVAATGWSGANTPYADSVKGRFTISRDNTQNTVYLQMNSLKPEDTATYYCAADSIRLRSDVTRIPLEYDYWGQGTQVTVSS
B3: FJ1427_P035MP01H02 (VHH)
VHH: QLQLVESGGGLVQAGDSLRLSCAASGRAFSRYAVGWFRMAPGKGREFVSAINSSGANTYVLDSVKGRFTISRDNDKNTAYLQMDSLQPEDTAVYWCAATSSSYSTYEANYNVWGQGTQVTVSS
B4: FJ1427_P035MP01F06 (VHH)
VHH: B3 VHH with D16G, R27G, N52D, S53L, A56T, Y59H, S85K, T105D, V112I
B5: FJ1427_P035MP01G04 (VHH)
VHH: QVQLVESGGGLVQPGGSLRLSCAASGFTFSNNFMSWVRQAPGKGLEWVSTISYFGDSTRYAESVKGRFTISRDNEKNTLHLQMNNLKPEDTAVYYCAKATSYDSIRSGSRGRGTQVTVSS
B6: FJ1427_P035MP01H05 (VHH)
VHH: B5 VHH with Q1E, R59T, E75A, H80Y
B7: FJ1427_P035MP01E11 (VHH)
VHH: B5 VHH with H80Y
B8: FJ1427_P035MP01G10 (VHH)
VHH: EVQLVESGGGLVQAGGSLRLSCAASGGAFSRYAVGWFRMAPGKGREFVSAIDLSGTNTHVLDSVKGRFTISRDNDKNTAYLQMDKLQPEDTAVYWCAATSSSYSDYEANYNIWGQGTQVTVSS
B9: FJ1427_P035MP01G01 (VHH)
VHH: QVQLQESGGGLVQAGGSLRLSCAASGRTFRTHNMGWFRRAPGKEREFVAAISWNVDNTLYADSVKGRFTISRDNDRNMVYLQMNSLKPEDTAVYFCAADNIPLSSDVRATATEFGYWGQGTRVTVSS
B10: FJ1427_P035MP01H11 (VHH)
VHH: B9 VHH with Q5V
B11: FJ1427_P035MP01E05 (VHH)
VHH: B9 VHH with Q5V, K43E, A50V, T58K, D75G, F95Y, R122Q
B12: FJ1427_P035MP01H07 (VHH)
VHH: EVQLVESGGGLVQAGGSLRLSCAASGRTLSGYAMAWFRQPPDKGREFVTAISSSGIVTHVLDSVKGRFTISRDNAKNTVYLQMNSLQPEDTALYFCAATASSYSDYEANYNYWGQGTLVTVSS
B13: FJ1427_P035MP01B01 (VHH)
VHH: EVQLVESGGGWVQAGDSLRLSCAASGRTFRNYVMGWFRQVPGKEREFLSVITSLGGTVYADSVANRFTISRDNPKDTVYLQMDSLKPEDTAVYYCAADRGPARYISASDVDYWGQGTQVTASS
B14: FJ1427_P035MP01F08 (VHH)
VHH: B13 VHH with A14P, T28S, V58L, Y59D, N65D, P74S, D76N, A121V
B15: FJ1427_P035MP01D04 (VHH)
VHH: B13 VHH with E1Q, A14P, T28S, S53W, V58L, Y59D, N65D, P74S, D76N, A121V
B16: FJ1427_P035MP01H10 (VHH)
VHH: QVQLVESGGGLVETGGSLRLSCAASGITFNDHTMAWFRQAPGKEREFVAARDWSDIITRYASSVKGRFTISRDNAGNTGFLQMNSLRPEDTAVYYCAAREGGVVAGVRSGAPYDYWGQGTQVTVSS
B17: FJ1427_P035MP01H08 (VHH)
VHH: EVQLVESGGRLVQSGGSLRLSCAASGRAFSTHNMGWFRRAPGKEREFVAAISWNVDNKLYANSVKGRFAISRDNGRNMVYLQMNSLKPEDTAVYYCAADNIPLSSDMRATATEYDVWGQGTQVTVSS
B18: 8-MP01C12 (VHH)
VHH: QVQLVESGGGLVQPGGSLRLSCATSGFTFSNNFMSWVRQAPGKGLEFVSTISYGGESTTYAEAVKGRFTISRDNAKNTLYLQMNNLKPEDTAIYYCAKATSYTSIRGAPRGQGTQVTVSS
B19: FJ1427_P035MP01C03 (VHH)
VHH: B5 VHH with Q1E, A24T, S30R, F54G, D56E, R59T, E75A, H80Y, R112Q
B20: FJ1427_P035MP01D09 (VHH)
VHH: B5 VHH with F54G, D56E, R59T, E75A, H80Y, R112Q
B21: FJ1427_P035MP01D03 (VHH)
VHH: B5 VHH with Q1E, A24T, S30R, K43E, F54G, D56E, R59T, E75A, H80Y, R112Q
B22: FJ1427_P035MP01F03 (VHH)
VHH: B5 VHH with F54G, D56E, R59T, E75A, H80Y, I105V, R112Q
B23: FJ1427_P035MP01D08 (VHH)
VHH: EVQLVESGGGLVQAGGSLRLSCAASGGTFRTRNMGWFRRAPGKEREFVAAVSWNVDNKLYAGSVKGRFTISRDNGRNMVYLQMNSLKPEDTAVYYCAADNIPLSSDMRPTATEYDYWGQGTQVTVSS
B24: FJ1427_P035MP01F02 (VHH)
VHH: QVQLQESGGGLVQAGGSLRLSCAASGRTFRTHNMGWFRRAPGKEREFVAAISWNIDNKLYADSVKGRSTISRDNGGNMVFLQMNSLKPEDTAVYYCAADKIPLSSDVAATATEYDDWGQGTQVTVSS
B25: FJ1427_P035MP01A01 (VHH)
VHH: EVQLVESGGGLVQAGDSLRLSCAASGRSFRNYILAWYRQAPGKEREFLAAISWLDGTLYADSVEDRFTISRDNPKNTVHLQMDNLKPEDTAVYYCAADRGPVRPVLAPDVDYWGQGTQVSVSS
B26: FJ1427_P035MP01E10 (VHH)
VHH: B25 VHH with E1Q, N84S, S120T
B27: FJ1427_P035MP01G03 (VHH)
VHH: B25 VHH with E1Q, R99Q, S120T
B28: FJ1427_P035MP01D11 (VHH)
VHH: B25 VHH with E1Q, V2L, L34M, N84S, S120T
B29: FJ1427_P035MP01F11 (VHH)
VHH: B25 VHH with E1Q, V5Q, N84S, S120T
B30: FJ1427_P035MP01E02 (VHH)
VHH: B25 VHH with E1Q, S120T
B31: FJ1427_P035MP01E07 (VHH)
VHH: B25 VHH with E1Q, V5Q, D55E, N84S, S120T
B32: FJ1427_P035MP01G07 (VHH)
VHH: B25 VHH with E1Q, A14T, D65G, N84S, S120T
B33: FJ1427_P035MP01E04 (VHH)
VHH: B25 VHH with E1Q, A24V, L58F, D61N, D65G, N84G, S120T, S122A

Target: T1, mouse IL-2Rα (mouse)
Assay: ELISA, P.E. on coated antigen

Binder | OD (PE binding ELISA) [OD450 nm]
B1 | 0.046
B2 | 0.046
B3 | 0.047
B4 | 0.046
B5 | 0.047
B6 | 0.046
B7 | 0.046
B8 | 0.046
B9 | 0.053
B10 | 0.047
B11 | 0.046
B12 | 0.049
B13 | 0.046
B14 | 0.046
B15 | 0.045
B16 | 0.057
B17 | 0.047

Binder | OD (PE binding ELISA) [OD450 nm]
B18 | 0.045
B19 | 0.045
B20 | 0.045
B21 | 0.048
B22 | 0.045
B23 | 0.045
B24 | 0.046
B25 | 0.046
B26 | 0.046
B27 | 0.048
B28 | 0.045
B29 | 0.047
B30 | 0.046
B31 | 0.046
B32 | 0.047
B33 | 0.046
